Laboratory results as given in publication PMC4880913.

Assays:
[1] = biological target: T1, p63-DBD (UniProt Q9H3D4); assay: fluorescence polarization; conditions: FP: 100 nM 5'-fluorescein dsDNA, 10 mM sodium phosphate pH 7.2, 1 mM DTT, temperature not stated; NMR: 1 mM sodium phosphate pH 7.2, 100 mM NaCl, 5 mM DTT …
T1 sequence: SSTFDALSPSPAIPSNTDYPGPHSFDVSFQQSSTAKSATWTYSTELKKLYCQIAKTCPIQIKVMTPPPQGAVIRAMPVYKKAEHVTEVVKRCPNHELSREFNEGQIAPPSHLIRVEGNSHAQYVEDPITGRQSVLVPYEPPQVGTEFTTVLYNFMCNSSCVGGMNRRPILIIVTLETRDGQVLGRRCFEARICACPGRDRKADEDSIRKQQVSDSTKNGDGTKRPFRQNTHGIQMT

[2] = biological target: p53 DBD (Homo sapiens) (UniProt P04637); conditions: cited from earlier work
[3] = biological target: fluorescein-labeled BclxLΔTM (human) (UniProt Q07817); assay: fluorescence polarisation; 100 nM N-terminally fluorescein-labeled BclxLΔTM titrated with increasing amounts of p63-DBD; 10 mM sodium phosphate pH 7.2, 1 mM DTT; one-site or cooperative binding model; triplicate
Sequence of fluorescein-labeled BclxLΔTM (human) (Q07817 1-212, stated change not applied): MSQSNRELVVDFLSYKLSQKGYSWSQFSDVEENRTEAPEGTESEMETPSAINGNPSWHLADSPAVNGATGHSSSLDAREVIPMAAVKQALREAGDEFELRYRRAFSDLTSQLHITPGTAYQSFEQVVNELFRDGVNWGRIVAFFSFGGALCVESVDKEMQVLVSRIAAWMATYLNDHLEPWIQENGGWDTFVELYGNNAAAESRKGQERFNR

Sequence of p53 DBD (Homo sapiens) (P04637 94-312): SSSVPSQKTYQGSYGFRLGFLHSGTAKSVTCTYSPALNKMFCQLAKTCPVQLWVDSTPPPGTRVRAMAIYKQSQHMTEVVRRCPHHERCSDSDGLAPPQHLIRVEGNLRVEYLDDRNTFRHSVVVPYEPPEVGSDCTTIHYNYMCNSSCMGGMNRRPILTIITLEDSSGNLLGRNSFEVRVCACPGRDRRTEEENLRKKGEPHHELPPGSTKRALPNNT
Sequence of BclxL (Q07817 whole entry): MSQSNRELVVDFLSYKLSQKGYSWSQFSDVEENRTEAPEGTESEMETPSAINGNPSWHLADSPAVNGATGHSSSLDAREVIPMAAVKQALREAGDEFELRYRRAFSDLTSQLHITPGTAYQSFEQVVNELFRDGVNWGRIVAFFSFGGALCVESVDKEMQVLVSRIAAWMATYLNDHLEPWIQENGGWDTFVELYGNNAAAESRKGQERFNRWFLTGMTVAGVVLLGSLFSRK

| Substance | binding signal (fold lower affinity than p53-DBD) [1] | other results |
| --- | --- | --- |
| Bax response element | 2 |  |
| BclxL (from UniProt Q07817) |  | Kd [2]: 5.5 µM |
| Jag-1 response element | 2 |  |
| p21 response element | 2 |  |
| p63 DNA binding domain (from UniProt Q9H3D4 153-388) (domain or fragment) |  | Kd [3]: 38 µM |
